In patent publication EP3783015A1 (Beijing DCTY Biotech Co., Ltd., dated 2021):

Molecular target: T1, ErbB2-Domain4 protein (human, UniProt P04626 1-675)
T1 construct: Made in E. coli BL21(DE3) from pET-28a (NdeI/XhoI), dissolved from inclusion bodies in 8 M urea and purified on a Ni column; also called ErbB2-Domain4-encoded protein
Assay: indirect ELISA, ErbB2-Domain4 protein coated at 100 ng/well, antibody in serial dilution, A450

EC50: 100 nM
B1: mouse anti-human ErbB2 monoclonal antibody 10A6 (antibody, mouse IgG1, kappa, V domains shown)
VH: QVTLKESGPGILQPSQTLSLTCSFSGFSLSTSGMGVSWIRQPSGKGLEWLAHIYWDDDKRYNPSLKSRLTISKDSSNKQVFLKFTSVDTADTATYYCAHFAYYNYDGAVDSWGQGTSVTVSS
VL: DIVMSQSPSSLTVSAGEKVSMSCKSSQSLLHSRTRKNYLAWYQQKPGQSPKLLIYWASTRESGVPDRFTGSGSGTDFTLTISSVQAEDLAVYYCKQSYSLYTFGGGTKLEIKR
notes: Mouse IgG1-Kappa, purified from hybridoma supernatant on protein G; also called 10A6 clonal antibody protein
